From PMC11148069 (2024)

T1: recombinant Xenopus Nup98 target (BLI) (Xenopus)
T1 chain: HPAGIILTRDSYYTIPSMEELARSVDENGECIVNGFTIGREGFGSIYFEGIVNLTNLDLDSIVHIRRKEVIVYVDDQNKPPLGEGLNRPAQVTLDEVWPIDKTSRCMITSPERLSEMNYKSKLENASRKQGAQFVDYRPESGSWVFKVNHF

T2: recombinant human Nup98 target (BLI) (human, UniProt P52948 1-880)
T2 chain: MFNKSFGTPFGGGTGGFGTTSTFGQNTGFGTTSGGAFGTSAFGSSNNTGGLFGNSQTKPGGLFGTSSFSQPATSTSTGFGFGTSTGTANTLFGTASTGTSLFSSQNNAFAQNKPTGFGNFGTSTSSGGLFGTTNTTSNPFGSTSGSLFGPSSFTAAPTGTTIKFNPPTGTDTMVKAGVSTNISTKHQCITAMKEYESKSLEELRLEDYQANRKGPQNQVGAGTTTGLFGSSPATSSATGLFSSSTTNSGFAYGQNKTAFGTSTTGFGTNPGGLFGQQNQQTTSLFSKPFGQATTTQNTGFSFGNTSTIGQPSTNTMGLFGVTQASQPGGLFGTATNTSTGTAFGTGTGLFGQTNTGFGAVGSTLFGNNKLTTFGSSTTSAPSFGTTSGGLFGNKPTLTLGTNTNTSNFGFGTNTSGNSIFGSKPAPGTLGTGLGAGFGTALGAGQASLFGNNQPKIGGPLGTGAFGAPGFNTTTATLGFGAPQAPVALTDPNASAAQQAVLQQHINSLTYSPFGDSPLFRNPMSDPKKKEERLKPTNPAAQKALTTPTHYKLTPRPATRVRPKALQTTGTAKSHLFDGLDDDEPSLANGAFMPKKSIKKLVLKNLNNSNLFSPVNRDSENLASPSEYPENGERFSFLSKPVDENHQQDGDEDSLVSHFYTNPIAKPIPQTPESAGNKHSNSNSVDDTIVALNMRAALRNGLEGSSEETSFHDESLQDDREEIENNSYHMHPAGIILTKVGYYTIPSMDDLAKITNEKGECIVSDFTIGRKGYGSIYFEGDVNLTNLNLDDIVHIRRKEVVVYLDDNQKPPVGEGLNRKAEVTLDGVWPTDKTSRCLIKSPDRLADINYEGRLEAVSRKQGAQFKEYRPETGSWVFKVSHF

T3: recombinant Xenopus Nup93 target (BLI) (Xenopus, UniProt Q7ZX96 1-820)
T3 chain: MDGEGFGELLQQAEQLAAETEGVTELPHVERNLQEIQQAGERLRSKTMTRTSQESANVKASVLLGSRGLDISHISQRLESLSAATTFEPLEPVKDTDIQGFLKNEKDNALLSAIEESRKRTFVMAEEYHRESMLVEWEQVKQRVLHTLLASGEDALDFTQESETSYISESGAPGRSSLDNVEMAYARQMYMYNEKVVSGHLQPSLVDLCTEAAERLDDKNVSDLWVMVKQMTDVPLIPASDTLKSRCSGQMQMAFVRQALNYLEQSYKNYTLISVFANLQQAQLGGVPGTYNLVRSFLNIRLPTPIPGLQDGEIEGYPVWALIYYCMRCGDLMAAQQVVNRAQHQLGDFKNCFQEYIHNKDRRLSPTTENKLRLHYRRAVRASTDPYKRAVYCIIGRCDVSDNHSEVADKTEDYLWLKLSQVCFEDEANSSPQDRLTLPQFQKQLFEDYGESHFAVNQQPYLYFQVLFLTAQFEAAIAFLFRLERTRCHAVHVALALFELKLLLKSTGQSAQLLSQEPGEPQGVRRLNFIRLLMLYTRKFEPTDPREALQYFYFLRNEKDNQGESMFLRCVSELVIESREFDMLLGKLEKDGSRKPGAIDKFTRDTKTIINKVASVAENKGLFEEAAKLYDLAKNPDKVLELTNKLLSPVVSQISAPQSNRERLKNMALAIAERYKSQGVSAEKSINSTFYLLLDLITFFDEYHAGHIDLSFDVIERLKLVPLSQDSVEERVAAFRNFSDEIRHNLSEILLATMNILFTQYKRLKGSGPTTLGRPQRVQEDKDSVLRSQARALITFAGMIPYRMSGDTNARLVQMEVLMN

T4: Xenopus Nup35, endogenous (Xenopus (endogenous in egg extract))
T4 chain: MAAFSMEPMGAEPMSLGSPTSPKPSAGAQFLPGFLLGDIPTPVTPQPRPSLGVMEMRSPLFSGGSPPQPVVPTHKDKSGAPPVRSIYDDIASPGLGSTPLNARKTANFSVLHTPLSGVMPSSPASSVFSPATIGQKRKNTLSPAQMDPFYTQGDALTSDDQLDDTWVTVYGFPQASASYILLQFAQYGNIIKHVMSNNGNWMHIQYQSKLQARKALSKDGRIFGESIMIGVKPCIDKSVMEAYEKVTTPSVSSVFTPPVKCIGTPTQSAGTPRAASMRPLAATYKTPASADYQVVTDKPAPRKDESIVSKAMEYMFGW

T5: human Nup35, endogenous (human (endogenous in HeLa), UniProt Q8NFH5 1-326)
T5 chain: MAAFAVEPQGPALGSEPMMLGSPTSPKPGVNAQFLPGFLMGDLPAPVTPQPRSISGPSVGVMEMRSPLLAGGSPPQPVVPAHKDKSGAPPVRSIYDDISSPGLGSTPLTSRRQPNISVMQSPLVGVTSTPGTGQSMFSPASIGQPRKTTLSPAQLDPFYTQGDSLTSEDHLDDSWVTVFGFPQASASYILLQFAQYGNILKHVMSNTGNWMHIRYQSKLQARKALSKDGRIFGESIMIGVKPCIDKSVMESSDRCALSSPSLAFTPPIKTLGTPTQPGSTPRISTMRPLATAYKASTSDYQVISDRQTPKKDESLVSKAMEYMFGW

B1: xhNup98-Nb2i, biotinylated for BLI (VHH)
VHH: QVQLVESGGGLAKPGGSLRLSCVATGTFRSMEDVGWYRQAPGKDRELVAEITTLGKVTYADSVKGRFTISRDDAKNAVYLQMSDLKSEDTAVYYCNIEADQTKGIGYVVYPYWGQGTRVTVSS
modifications: Biotin-[PEG]3-maleimide on two ectopic cysteines
B2: xhNup93-Nb4i, biotinylated for BLI (VHH)
VHH: QVQLVESGGGVVQTGDSLMLSCTVSGHTIDNWAMGWFRQTPRKQREFVAAIDKRGTGAIYGNSVKGRFTVSRDNAKNMVYLRMNSLKPEDTAVYFCAVDQLNAGLGDVSYDYDYWGQGTQVTVSS
modifications: Biotin-[PEG]3-maleimide on two ectopic cysteines
B3: xhNup98-Nb3i (VHH)
VHH: QVQLVESGGGLVQAGGSLRLSCAASGRTFSTYAMGWFRQAPGKEREFVSACSWSGGITRYADSVKGRFTISRDNAKNTVYLQMNSLKPEDTAVYYCASAASSAAYSGAYYYTSYYDYWGQGTQVTVSS
B4: xNup98-Nb1t (as added in the binding assay of Fig. 11C) (VHH)
VHH: QVQLVESGGGPVEAGGSLRLSCAASGRSFSNSVMAWFRQAPGKEREFLSVLNWSSGRTSIADSVKGRFTMSRDPAKITVYLQMNGLKPEDTAVYYCAASNRGSLYTLDNQNRYEDWGQGTQVTVSS
B5: recombinant human Nup93 target (BLI) (natural protein)
chain: MDTEGFGELLQQAEQLAAETEGISELPHVERNLQEIQQAGERLRSRTLTRTSQETADVKASVLLGSRGLDISHISQRLESLSAATTFEPLEPVKDTDIQGFLKNEKDNALLSAIEESRKRTFGMAEEYHRESMLVEWEQVKQRILHTLLASGEDALDFTQESEPSYISDVGPPGRSSLDNIEMAYARQIYIYNEKIVNGHLQPNLVDLCASVAELDDKSISDMWTMVKQMTDVLLTPATDALKNRSSVEVRMEFVRQALAYLEQSYKNYTLVTVFGNLHQAQLGGVPGTYQLVRSFLNIKLPAPLPGLQDGEVEGHPVWALIYYCMRCGDLLAASQVVNRAQHQLGEFKTWFQEYMNSKDRRLSPATENKLRLHYRRALRNNTDPYKRAVYCIIGRCDVTDNQSEVADKTEDYLWLKLNQVCFDDDGTSSPQDRLTLSQFQKQLLEDYGESHFTVNQQPFLYFQVLFLTAQFEAAVAFLFRMERLRCHAVHVALVLFELKLLLKSSGQSAQLLSHEPGDPPCLRRLNFVRLLMLYTRKFESTDPREALQYFYFLRDEKDSQGENMFLRCVSELVIESREFDMILGKLENDGSRKPGVIDKFTSDTKPIINKVASVAENKGLFEEAAKLYDLAKNADKVLELMNKLLSPVVPQISAPQSNKERLKNMALSIAERYRAQGISANKFVDSTFYLLLDLITFFDEYHSGHIDRAFDIIERLKLVPLNQESVEERVAAFRNFSDEIRHNLSEVLLATMNILFTQFKRLKGTSPSSSSRPQRVIEDRDSQLRSQARTLITFAGMIPYRTSGDTNARLVQMEVLMN
B6: xNup93-Nb2t (VHH)
VHH: DVQLVESGGGLVQPGGSLRLSCVASGFTFSRVGMGWVRQAPGKGLEWVSDINASGGTGYADSVKGRFAISRDNAKNTLYLQMNRLKPEDTAVYYCAKMMDTAMIEAGIIKPAGQGTQVTVSS
B7: xhNup35-Nb1t (VHH)
VHH: QVQLVESGGGLVQAGGSLRLSCVGTGNISSAYTMAWYRQAAGKEREVVAGILNGGSTHYADSVKGRFTISRDNAKNTVYLQMNSLQPEDTGVYCCHVVIESTRFVYDHYWGQGTRVTVSS

Key:
Experiment in all cases: BLI
[1] = target: T1, recombinant Xenopus Nup98 target (BLI)
[2] = target: T2, recombinant human Nup98 target (BLI)
[3] = target: T3, recombinant Xenopus Nup93 target (BLI)
[4] = target: B5
[5] = target: xhNup93-Nb3t
[6] = target: T4, Xenopus Nup35, endogenous
[7] = target: T5, human Nup35, endogenous

| Binder | Kd [1] | Kd [2] | further results |
| --- | --- | --- | --- |
| B1 | < 0.01 nM | 0.02 nM |  |
| B2 |  |  | Kd [3]: < 0.01 nM; Kd [4]: 3 nM |
| B3 | < 0.01 nM | < 0.01 nM |  |
| B4 | 1.7 nM | > 100 nM |  |
| B5 |  |  | Kd [5]: 1 nM |
| B6 |  |  | Kd [3]: 4 nM |
| B7 |  |  | Kd [6]: 0.5 nM; Kd [7]: 0.8 nM |
